According to patent publication US20060140889A1:
Changes are numbered by the printed parent chain.

How the values were obtained:
[1] = target: ELK (3% skim milk powder solution); experiment: ELISA, control well with ELK only, ~50 ng iMab per well, anti-VSV-HRP; urea purification
[2] = target: ELK (3% skim milk powder solution); experiment: ELISA, control well with ELK only, ~50 ng iMab per well, anti-VSV-HRP; purification by heat (60 C)
[3] = target: chicken lysozyme (chicken), P00698; experiment: ELISA versus lysozyme, iMab dilution 1:10,000, after precipitation with potassium acetate pH 4.8 and redissolving in PBS pH 7.5; conditions: remark: other sources report otherwise
[4] = target: chicken lysozyme (chicken), P00698; experiment: ELISA versus lysozyme, iMab dilution 1:10, before pH shock; conditions: remark: other sources report otherwise
[5] = target: chicken lysozyme (chicken), P00698; experiment: ELISA versus lysozyme, iMab dilution 1:1000, after precipitation with potassium acetate pH 4.8 and redissolving in PBS pH 7.5; conditions: remark: other sources report otherwise
[6] = target: chicken lysozyme (chicken), P00698; experiment: ELISA, well coated with lysozyme (100 ug/ml) and blocked with ELK, ~50 ng iMab per well, anti-VSV-HRP; purification by heat (60 C); conditions: remark: other sources report otherwise
[7] = target: chicken lysozyme (chicken), P00698; experiment: ELISA versus lysozyme, iMab dilution 1:1000, before pH shock; conditions: remark: other sources report otherwise
[8] = target: chicken lysozyme (chicken), P00698; experiment: ELISA versus lysozyme, iMab dilution 1:100, after precipitation with potassium acetate pH 4.8 and redissolving in PBS pH 7.5; conditions: remark: other sources report otherwise
[9] = target: chicken lysozyme (chicken), P00698; experiment: ELISA, well coated with lysozyme (100 ug/ml) and blocked with ELK, ~50 ng iMab per well, anti-VSV-HRP; urea purification; conditions: remark: other sources report otherwise
[10] = target: chicken lysozyme (chicken), P00698; experiment: ELISA versus lysozyme, iMab dilution 1:10,000, before pH shock; conditions: remark: other sources report otherwise
[11] = target: chicken lysozyme (chicken), P00698; experiment: ELISA versus lysozyme, iMab dilution 1:10, after precipitation with potassium acetate pH 4.8 and redissolving in PBS pH 7.5; conditions: remark: other sources report otherwise
[12] = target: chicken lysozyme (chicken), P00698; experiment: ELISA versus lysozyme, iMab dilution 1:100, before pH shock; conditions: remark: other sources report otherwise
hair proteins [13] = experiment: ELISA on coated hair proteins, blocking 0.5% BSA, iMab (OD280 3.60) diluted 100 x, anti-VSV-HRP; background without iMab 0.095
skin proteins [14] = experiment: ELISA on coated skin proteins, blocking 0.5% BSA, iMab (OD280 0.585) diluted 200 x, anti-VSV-HRP; background without iMab 0.484
skin proteins [15] = experiment: ELISA on coated skin proteins, blocking Seablock, iMab (OD280 0.585) diluted 200 x, anti-VSV-HRP; background without iMab 0.131
hair proteins [16] = experiment: ELISA on coated hair proteins, blocking 0.5% BSA, iMab (OD280 4.22) diluted 100 x, anti-VSV-HRP; background without iMab 0.095
skin proteins [17] = experiment: ELISA on coated skin proteins, blocking 0.5% BSA, iMab (OD280 0.323) diluted 100 x, anti-VSV-HRP; background without iMab 0.484
skin proteins [18] = experiment: ELISA on coated skin proteins, blocking Seablock, iMab (OD280 0.323) diluted 100 x, anti-VSV-HRP; background without iMab 0.131
skin proteins [19] = experiment: ELISA on coated skin proteins, blocking 0.5% BSA, iMab (OD280 0.399) diluted 100 x, anti-VSV-HRP; background without iMab 0.187
skin proteins [20] = experiment: ELISA on coated skin proteins, blocking Seablock, iMab (OD280 0.399) diluted 100 x, anti-VSV-HRP; background without iMab 0.084
hair proteins [21] = experiment: ELISA on coated hair proteins, blocking 0.5% BSA, iMab (OD280 2.82) diluted 100 x, anti-VSV-HRP; background without iMab 0.095
skin proteins [22] = experiment: ELISA on coated skin proteins, blocking Seablock, iMab (OD280 0.327) diluted 100 x, anti-VSV-HRP; background without iMab 0.131
skin proteins [23] = experiment: ELISA on coated skin proteins, blocking 0.5% BSA, iMab (OD280 0.327) diluted 100 x, anti-VSV-HRP; background without iMab 0.484
skin proteins [24] = experiment: ELISA on coated skin proteins, blocking Seablock, iMab (OD280 0.828) diluted 250 x, anti-VSV-HRP; background without iMab 0.131
hair proteins [25] = experiment: ELISA on coated hair proteins, blocking 0.5% BSA, iMab (OD280 3.19) diluted 100 x, anti-VSV-HRP; background without iMab 0.095
skin proteins [26] = experiment: ELISA on coated skin proteins, blocking 0.5% BSA, iMab (OD280 0.828) diluted 250 x, anti-VSV-HRP; background without iMab 0.484
skin proteins [27] = experiment: ELISA on coated skin proteins, blocking Seablock, iMab (OD280 0.711) diluted 200 x, anti-VSV-HRP; background without iMab 0.131
skin proteins [28] = experiment: ELISA on coated skin proteins, blocking 0.5% BSA, iMab (OD280 0.711) diluted 200 x, anti-VSV-HRP; background without iMab 0.484
hair proteins [29] = experiment: ELISA on coated hair proteins, blocking 0.5% BSA, iMab (OD280 1.71) diluted 100 x, anti-VSV-HRP; background without iMab 0.095
skin proteins [30] = experiment: ELISA on coated skin proteins, blocking 0.5% BSA, iMab (OD280 0.357) diluted 100 x, anti-VSV-HRP; background without iMab 0.484
skin proteins [31] = experiment: ELISA on coated skin proteins, blocking Seablock, iMab (OD280 0.357) diluted 100 x, anti-VSV-HRP; background without iMab 0.131
hair proteins [32] = experiment: ELISA on coated hair proteins, blocking 0.5% BSA, iMab (OD280 2.36) diluted 100 x, anti-VSV-HRP; background without iMab 0.095
hair proteins [33] = experiment: ELISA on coated hair proteins, blocking 0.5% BSA, iMab (OD280 1.09) diluted 100 x, anti-VSV-HRP; background without iMab 0.095
[34] = target: bovine serum albumin (bovine) (UniProt P02769); experiment: gel-shift, 2 mg/ml conjugate with 10 mg/ml BSA, 7.5% native PAA gel; Rf of the conjugate alone 0.66
[35] = target: bovine serum albumin (bovine) (UniProt P02769); experiment: gel-shift, 0.1 mg/ml conjugate with 10 mg/ml BSA, 7.5% native PAA gel, in situ peroxidase activity; Rf of the conjugate alone 0.31

Sequence of chicken lysozyme (chicken), P00698 (P00698 19-147 limits assumed): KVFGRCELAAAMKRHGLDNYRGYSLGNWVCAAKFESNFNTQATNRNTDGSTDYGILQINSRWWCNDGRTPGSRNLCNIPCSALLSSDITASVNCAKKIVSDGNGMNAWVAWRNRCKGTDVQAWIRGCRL
Sequence of bovine serum albumin (bovine) (P02769 25-607 limits assumed): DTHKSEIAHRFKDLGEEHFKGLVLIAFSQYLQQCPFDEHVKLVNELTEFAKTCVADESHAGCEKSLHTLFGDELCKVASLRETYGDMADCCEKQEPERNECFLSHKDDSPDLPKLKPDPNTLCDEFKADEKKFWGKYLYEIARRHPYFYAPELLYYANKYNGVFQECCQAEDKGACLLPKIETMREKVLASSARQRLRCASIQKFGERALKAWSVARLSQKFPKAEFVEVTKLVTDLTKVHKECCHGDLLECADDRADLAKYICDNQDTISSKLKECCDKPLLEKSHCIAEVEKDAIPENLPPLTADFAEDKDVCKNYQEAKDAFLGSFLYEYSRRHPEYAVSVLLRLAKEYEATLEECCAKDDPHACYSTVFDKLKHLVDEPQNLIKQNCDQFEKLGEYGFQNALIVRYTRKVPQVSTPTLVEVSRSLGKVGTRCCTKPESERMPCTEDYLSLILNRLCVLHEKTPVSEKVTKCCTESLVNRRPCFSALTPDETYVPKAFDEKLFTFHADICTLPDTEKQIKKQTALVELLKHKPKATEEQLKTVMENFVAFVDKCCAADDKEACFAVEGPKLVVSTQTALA

B1: iMab111 (designed binder)
chain: NVKLVCKGGNFVENDDDLKLTCRAEGYTIGPYCMGWFRQAPNDDSTNVATINMGGGITYYGDSVKERFDIRRDNASNTVTLSMDDLQPEDSAEYNCAGDSTIYASYYECGHGLSTGGYGYDSHYRCQGTDVTVSS
- Absorbtion (450 nm) (absorbance at 450 nm) [1]: 0.043

B2: iMab122 (designed binder, not shown: small tags and cut ends)
chain: NVKLVEKGGNFVENDDDLKLTCRASGRTFSSRTMGWFRQAPNDDSTNVATIRWNGGSTYYTNYGDSVKERFDIRVDQASNTVTLSMDDLQPEDSAEYNCAGTDIGDGWSGRYDYRGQGTDVTVSS
- Absorbtion (450 nm) (absorbance at 450 nm) [1]: 0.051

B3: iMab100 (designed binder, not shown: small tags and cut ends)
chain: B1 chain with C6E, C126G
- Absorbtion (450 nm) (absorbance at 450 nm) [2]: 0.041
- Signal on Elisa [3]: 0.059
- Signal on Elisa [4]: 0.36
- Signal on Elisa [5]: 0.169
- Absorbtion (450 nm) (absorbance at 450 nm) [6]: 0.369
- Signal on Elisa [7]: 0.128
- Absorbtion (450 nm) (absorbance at 450 nm) [1]: 0.04
- Signal on Elisa [8]: 0.263
- Absorbtion (450 nm) (absorbance at 450 nm) [9]: 0.494
- Signal on Elisa [10]: 0.059
- Signal on Elisa [11]: 0.39
- Signal on Elisa [12]: 0.228

B4: iMab143-xx-0029 (designed binder)
chain: MIKVYTDRENYGAVGSQVTLHCSASGYTIGPISFTWRYQPEGDRDAISIFHYNMGDGSIVIHNLDYSDNGSFTCAARFVDALYEPKSCTSRNYAYGNSSQVTLYVFE
- OD450 in Elisa (hair proteins [13]): 0.203 OD450
- OD450 in Elisa (skin proteins [14]): 1.88 OD450
- OD450 in Elisa (skin proteins [15]): 0.212 OD450

B5: iMab143-xx-0030 (designed binder)
chain: MIKVYTDRENYGAVGSQVTLHCSASGYTIGPISFTWRYQPEGDRDAISIFHYNMGDGSIVIHNLDYSDNGSFTCAAVFAVVTVATKPDPRFYDYGNSSQVTLYVFEA
- OD450 in Elisa (hair proteins [16]): 0.262 OD450
- OD450 in Elisa (skin proteins [17]): 2.02 OD450
- OD450 in Elisa (skin proteins [18]): 0.56 OD450

B6: iMab142-xx-0032 (designed binder)
chain: MNVKLVEKGGNFVENDDDLKLTCRAEGYTIGPYSMGWFRQAPNDDSTNVSCINMGGGITYYGDSVKERFDIRRDNASNTVTLSMDDLQPEDSAEYNCAATLAPFSIATMYGGLLDTAFDSRGQGTDVTVSS
- OD450 in Elisa (skin proteins [19]): 0.306 OD450
- OD450 in Elisa (skin proteins [20]): 0.088 OD450

B7: iMab143-xx-0031 (designed binder)
chain: MIKVYTDRENYGAVGSQVTLHCSASGYTIGPISFTWRYQPEGDRDAISIFHYNMGDGSIVIHNLDYSDNGSFTCAATTPFIDYDPNDICPSWYEYDYGNSSQVTLYVFE
- OD450 in Elisa (hair proteins [21]): 1.05 OD450
- OD450 in Elisa (skin proteins [22]): 2.88 OD450
- OD450 in Elisa (skin proteins [23]): 2.62 OD450

B8: iMab143-xx-0033 (designed binder)
chain: MIKVYTDRENYGAVGSQVTLHCSASGYTIGPISFTWRYQPEGDRDAISIFHYNMGDGSIVIHNLDYSDNGSFTCAADLHGLGLRRISTYEYGNSSQVTLYVFE
- OD450 in Elisa (skin proteins [24]): 0.29 OD450
- OD450 in Elisa (hair proteins [25]): 0.442 OD450
- OD450 in Elisa (skin proteins [26]): 1.66 OD450

B9: iMab143-xx-0035 (designed binder)
chain: MIKVYTDRENYGAVGSQVTLHCSASGYTIGPISFTWRYQPEGDRDAISIFHYNMGDGSIVIHNLDYSDNGSFTCAAGADCSDYGIMYGMDYGNSSQVTLYVFE
- OD450 in Elisa (skin proteins [27]): 1.79 OD450
- OD450 in Elisa (skin proteins [28]): 0.824 OD450

B10: iMab143-xx-0034 (designed binder)
chain: MIKVYTDRENYGAVGSQVTLHCSASGYTIGPISFTWRYQPEGDRDAISIFHYNMGDGSIVIHNLDYSDNGSFTCAAYRIRSGGYYCFLTYLMDYGNSSQVTLYVFE
- OD450 in Elisa (hair proteins [29]): 0.736 OD450
- OD450 in Elisa (skin proteins [30]): 2.23 OD450
- OD450 in Elisa (skin proteins [31]): 0.699 OD450

B11: iMab142-xx-0039 (designed binder)
chain: NVKLVEKGGNFVENDDDLKLTCRAEGYTIGPYSMGWFRQAPNDDSTNVSCINMGGGITYYGDSVKERFDIRRDNASNTVTLSMDDLQPEDSAEYNCAADYGRCSWLIRAYNYRGQGTDVTVSS
- OD450 in Elisa (hair proteins [32]): 1.32 OD450

B12: iMab142-xx-0038 (designed binder)
chain: NVKLVEKGGNFVENDDDLKLTCRAEGYTIGPYSMGWFRQAPNDDSTNVSCINMGGGITYYGDSVKERFDIRRDNASNTVTLSMDDLQPEDSAEYNCATTLAPFGIATMYGPLNPAAFESRGQGTDVTVSS
- OD450 in Elisa (hair proteins [33]): 2.35 OD450

B13: TRITC labeled iMab142-xx-0002 (designed binder, not shown: small tags and cut ends)
chain: MNVKLVEKGGNFVENDDDLKLTCRAEGYTIGPYSMGWFRQAPNDDSTNVSCINMGGGITYYGDSVKERFDIRRDNASNTVTLSMDDLQPEDSAVYNCAADWWDGFTYGSTWYNPSSYDYRGQGTDVTVSS
modifications: TRITC covalently on primary amines, meaning the N-terminus and Lys side chains. Positions and number are not stated; labelled Lys is written K.
- retardation factor (Rf) [34]: 0.66

B14: iMab142-xx-0002-HRP conjugate (protein, not shown: small tags and cut ends)
chain: B13 chain
modifications: Amines (N-terminus and Lys) were thiolated with SATA, deacetylated, and coupled by thioether to maleimide-activated horseradish peroxidase. The sites and the iMab:HRP ratio of the product are not stated.
- retardation factor (Rf) [35]: 0.31

B15: iMab116 (designed binder, not shown: small tags and cut ends)
chain: B1 chain with C6E, C96G, A104G, C126G
- Absorbtion (450 nm) (absorbance at 450 nm) [1]: 0.042
